Results on two substances are retold here after patent publication US8263133B2, “Multivalent clustering targeting strategy for drug carriers” (The Regents of the University of California, priority 2009, dated 2012).

Where no end group is shown, it is not given here.

One data set has as its target T1, αvβ3 integrins (Homo sapiens, UniProt P05106+P06756).
T1 construct: host or cells: HeLa cells, harvested by scraping
Nature of the data set: Anti-adhesion assay on vitronectin-coated wells. The format is cell-based. The settings on record: HeLa cells. The protocol:
HeLa cells (ATCC, Manassas, Va.) were cultured in DMEM medium (Invitrogen, Carlsbad, Calif.) supplemented with 10% Bovine Growth Serum (BGS, Hyclone, Logan, Utah). The cells were cultured at 37° C., with 98% humidity and 5% CO2. Cells were regularly subcultured using trypsin. 96-well plates were coated with human vitronectin by incubating a vitronectin solution (50 μL of 3 μg/mL, Invitrogen, Carlsbad, Calif.) in the well for 12-hrs at 37° C. The wells were washed three times with PBS and blocked with BSA (50 μL of 2% BSA in PBS) for 30 minutes at 37° C. The wells were washed three times with PBS and 100 μL/well of serum-free DMEM was added before chilling on ice. HeLa cells were harvested by scrapping using cell scrapers (USA Scientific, Ocala, Fla.), pelleted, and resuspended in ice cold serum-free DMEM to 400,000 cells/mL. 200 μL of serum-free DMEM was added to 50 μL of Au-Cap-RGD solution and vortexed before 250 μL of cell solution was added to the cells and placed in ice for 15 minutes. 100 μL/well of cell solution was added and allowed to incubate at 37° C. for 50 minutes. The plate was submerged in PBS in a Ziploc bag and centrifuged upside down for 10 minutes at 250 g. The plate was washed gently with additional PBS and removed. Remaining liquid was removed from the wells. The cells were fixed using 4% paraformaldehyde solution for 15 minutes and washed 3 times with PBS. Crystal violet solution was added to each well and incubated for 1 hr. The wells were then washed with milliQ water until no crystal violet was visible in solution. Crystal violet was solubilized using 10% acetic acid plate for 15 min and the absorbance at 570 nm was taken using the PowerWave microplate reader (BioTek, Winooski, Vt.).

Data set [1] in a line: Salt stability of modified and unmodified nanoparticles by UV-Vis absorbance. In kind it is physicochemical. To be noted: absorption scan, increasing NaCl. The protocol: FIG. 2. Salt stability of modified and unmodified nanoparticles measured using UV-Vis absorbance spectroscopy. Salt concentration was increased using 2 μL for unmodified nanoparticles and 15 μL of 4.11 M NaCl every 15 min. Wavelength scans of (A) 5 nm unmodified Au nanoparticles and (B) Au-Cap nanoparticles in solution with increasing NaCl concentration. Shaded area under the curves in A and B were used to calculate aggregation parameter. C. Aggregation parameter plotted with mean±SD for n=3 for increasing NaCl concentration for 5 nm unmodified Au and Au-Cap.
Peptide-modified (Au-Cap) and unmodified particles were tested to check their salt stability. Au and Au-Cap nanoparticles were added to semi-micro cuvettes and serial additions of NaCl solution were added every 15 min followed by a wavelength scan from 400-900 nm (Beckman DU 730, Fullerton, Calif.). Aggregation parameter (AP) used to quantify aggregation was calculated using the equation AP=(A−A0)/A0. A is the integral of absorbance from 600 to 700 nm, and A0 is the integral of absorbance from 600 to 700 nm of the initial solution without salt added (see FIG. 2 area under the curve).

The test system of another data set is HeLa cells. Nature of the data set: Cell toxicity (proliferation) assay. The format is cell-based. To be noted: all concentrations tested up to 17.9×10^10 particles/well. The protocol: FIG. 4. Cell toxicity (proliferation) assay for Au-Cap nanoparticles and DNA/PEI-Au polyplexes. HeLa cells were plated in 96-well plates (7000 cells/well) for 12-hrs before exposing the cells to Au-Cap nanoparticles or DNA/PEI-Au-Cap-RGD-ASA polyplexes at varying concentrations of Au nanoparticles (1.7 μL/well) and testing for cell proliferation. The data was normalized to absorbance of untreated samples to calculate the percent viability for each sample (n=3).
To determine whether 5 nm Au-Cap or DNA/PEI polyplexes modified with 5 nm Au-RGD-ASA were toxic to cells, the proliferation rate of HeLa cells exposed to Au-Cap or DNA/PEI-Au-RGD-ASA was compared to that of untreated cells (FIG. 4). Au-Cap nanoparticles were not toxic to cells for all the concentrations tested up to 17.9×10^10 particles/well (equivalent to 80×10^10 particles/m DNA).

T1 sequence (P06756 31-889 limits assumed): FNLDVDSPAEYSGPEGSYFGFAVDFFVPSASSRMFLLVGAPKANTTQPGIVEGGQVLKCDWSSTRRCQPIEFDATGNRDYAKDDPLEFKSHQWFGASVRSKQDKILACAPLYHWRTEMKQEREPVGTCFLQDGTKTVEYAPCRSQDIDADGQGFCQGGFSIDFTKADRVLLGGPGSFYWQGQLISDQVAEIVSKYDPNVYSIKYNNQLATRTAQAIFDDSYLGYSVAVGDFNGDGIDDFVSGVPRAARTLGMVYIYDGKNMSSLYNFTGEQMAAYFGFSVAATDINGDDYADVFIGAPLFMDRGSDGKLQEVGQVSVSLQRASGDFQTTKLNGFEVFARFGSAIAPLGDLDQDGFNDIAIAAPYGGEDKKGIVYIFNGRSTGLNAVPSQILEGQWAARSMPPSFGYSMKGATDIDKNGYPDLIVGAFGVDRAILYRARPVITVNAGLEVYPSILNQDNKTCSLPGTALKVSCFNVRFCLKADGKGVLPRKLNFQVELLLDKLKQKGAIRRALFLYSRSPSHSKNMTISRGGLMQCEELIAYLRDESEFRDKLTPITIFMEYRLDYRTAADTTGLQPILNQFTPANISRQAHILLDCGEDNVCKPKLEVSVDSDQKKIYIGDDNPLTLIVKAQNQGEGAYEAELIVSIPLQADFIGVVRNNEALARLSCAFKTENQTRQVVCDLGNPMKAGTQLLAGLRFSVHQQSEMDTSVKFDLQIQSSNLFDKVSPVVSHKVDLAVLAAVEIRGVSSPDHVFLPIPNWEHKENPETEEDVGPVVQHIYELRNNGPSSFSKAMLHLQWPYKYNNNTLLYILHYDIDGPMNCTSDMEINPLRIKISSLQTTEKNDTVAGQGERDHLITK
T1 sequence (P06756 891-1048 partner limits assumed): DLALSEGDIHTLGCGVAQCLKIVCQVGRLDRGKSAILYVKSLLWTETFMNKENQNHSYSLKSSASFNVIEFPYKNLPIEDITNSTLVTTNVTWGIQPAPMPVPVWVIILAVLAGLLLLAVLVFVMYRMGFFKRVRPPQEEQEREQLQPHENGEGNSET
T1 sequence (P05106 27-788): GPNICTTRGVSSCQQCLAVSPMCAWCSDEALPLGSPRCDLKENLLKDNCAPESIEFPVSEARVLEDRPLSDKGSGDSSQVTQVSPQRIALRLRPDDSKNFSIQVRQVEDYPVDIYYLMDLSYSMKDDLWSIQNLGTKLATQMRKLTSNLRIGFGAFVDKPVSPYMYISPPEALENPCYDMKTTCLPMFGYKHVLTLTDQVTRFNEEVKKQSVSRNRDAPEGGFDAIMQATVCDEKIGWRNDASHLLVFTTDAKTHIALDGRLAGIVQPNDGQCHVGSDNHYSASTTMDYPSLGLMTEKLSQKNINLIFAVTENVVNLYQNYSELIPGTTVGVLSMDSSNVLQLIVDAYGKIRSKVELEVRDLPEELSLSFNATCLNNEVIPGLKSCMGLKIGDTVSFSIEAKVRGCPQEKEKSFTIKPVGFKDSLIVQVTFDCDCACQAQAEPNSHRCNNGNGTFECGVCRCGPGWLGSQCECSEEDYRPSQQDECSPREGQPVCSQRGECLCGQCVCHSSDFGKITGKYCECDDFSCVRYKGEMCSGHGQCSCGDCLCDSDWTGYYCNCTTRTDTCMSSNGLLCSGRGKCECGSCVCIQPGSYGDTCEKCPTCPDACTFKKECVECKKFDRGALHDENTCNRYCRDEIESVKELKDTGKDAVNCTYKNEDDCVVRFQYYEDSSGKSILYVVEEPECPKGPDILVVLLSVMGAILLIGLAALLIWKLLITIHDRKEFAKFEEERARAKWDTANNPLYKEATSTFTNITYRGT

On to “Au-Cap-RGD: RGD modified gold nanoparticles formed with mixtures of Cap and Cap-RGD peptides (peptide 1 Ac-CCVVVTGRGDSPSSK-OH; peptide 2 CCVVVT-OH; cysteine pairing not given here; also: mixture of Cap and Cap-RGD peptides on gold nanoparticles)”, for which the “Equivalent amount of RGD required compared to monovalent free RGD peptide” value with αvβ3 integrins (n=3) was “required less”. For the same substance, the IC50 with αvβ3 integrins (equivalent RGD peptide concentration, read-out: IC50 concentration at which 50% of cell adhesion is inhibited) is about 100 nM.

For the substance “Au-Cap: 5 nm gold nanoparticles stabilized with self-assembling peptide CCVVVT (Cap) (CCVVVT-OH; cysteine pairing not given here; also: attached to 5 nm gold nanoparticles)”, in the data set with αvβ3 integrins, the “Effect on cell attachment” value is given as “did not affect cell attachment”. In data set [1], the “NaCl concentration up to which nanoparticles are stable” value is listed as “up to 500 mM”. The Toxicity to cells result in the data set with HeLa cells is “not toxic”.
